Measurements taken from paper doi:10.1101/2021.03.15.435440 (bioRxiv, 2021).
Read-outs that look alike come from different tables or passages of the source.

Experiments:
[1] = biological target: T1, wildtype SARS-2 RBD (SARS-CoV-2, GenBank MN975262.1 …, UniProt A0A679G9E9)
[2] = biological target: T1, wildtype SARS-2 RBD; assay: BLI

B1: Ab20 (antibody, V domains shown)
VH: EVQLQQSGPELVKPGASVKISCKASGFSFTGYSMNWMKQSPEKSLEWIGEINPTTGGTTYNQKFKAKATLTVDKSSSTAYIQLKSLTSEDSAVYYCARGRADYWGQGTTLTVSS
VL: DIVLTQSPASLAVSLGQRATISCRASESVEYYGTGLVQWFQQKPGQPPKLLIYAASNVESGVPARFSGSGSGTDFSLNIHSVEEDDIAMYFCHQSRKLPWTFGGGTKLEIK
B1: binds [1].

B2: Ab19 (antibody, V domains shown)
VH: QVQLQQSGAELARPGASVKLSCKASGYPFTSYGINWVKQRTGQGLEWIGEIYPRIGNTYYNEKFKGKATLTADKSSSTAYMEFRSLTSEDSAVYFCARSWNSNYGEYYFDYWGQGTTLTVS
VL: DIVMTQSHKFMSTSIGDRVSITCKASHDVSTAVAWYQQKPGQSPKLLIYWASTRHTGVPDRFTGSGSGTDYTLTIRSVQAEDLALYYCQQHYSTPYTFGGGTKLEIK
B2: binds [1].

B3: Ab15 (antibody, V domains shown)
VH: EVQLQQSGPELVKPGASVKISCKASGYSFTGYYMNWVKQSPEKSLEWIGEINPNFGGTTYNQKFKAKATLTVDKSSSTAYMQLKSLTSEDSAVYYCARYYGNLYAMDYWGQGTSVTVS
VL: DILMTQSPSSMSVSLGDTVSITCHASQGISSNIGWLQQKPGKSFKGLIYHGTNLEDGVPSRFSGSGSGAAYSLTISSLESEDFADYYCVQYTHFPYTFGGGTKLEIK
B3: binds [1].

B4: Ab16 Fab (Fab, V domains shown)
VH: EVQLQQSGPELVKPGASVKISCKASGYSFNNYYMNWVKQSPEKSLEWIGEINPNSGYTSYNQKFRAKATLTVDKSSTTAYMQLKSLTSEDSAVYYCARYFGNLFAMDFWGQGTSVTVS
VL: DILMTQSPSSMSVSLGDTVSITCHASQGIGSNIGWLQQKPGKSFKGLIYLGTNLEDGVPSRFSGSGSGADYSLTISSLESEDFADYYCVQYVQFPYTFGGGTKLEIK
B4: binds [2].
